In US20250034212A1, “PEPTIDE” (PEPTIDREAM INC., priority 2021, published 2025):
Starred links: 1 amine or outer side, 2 acyl side, 3 side chain; linkers in the order of their positions; H or OH if unused. Positions of bridges follow the written chain, without caps; N, C: chain ends. Non-standard residues stand in square brackets, D forms with d. No end group written: not given here. *: point of attachment. HA‑tag = HA-tag attached to the G end of the C-terminal linker, CC(C)[C@H](NC(=O)[C@H](CC(=O)O)NC(=O)[C@H](Cc1ccc(O)cc1)NC(=O)[C@@H]1CCCN1C(=O)[C@H](Cc1ccc(O)cc1)N*)C(=O)N1CCC[C@H]1C(=O)N[C@@H](CC(=O)O)C(=O)N[C@@H](Cc1ccc(O)cc1)C(=O)N[C@@H](C)C(=O)O; KCOmeglumine = N6-(methyl-((2S,3R,4R,5R)-2,3,4,5,6-pentahydroxyhexyl)carbamoyl)-L-lysine, CN(C[C@H](O)[C@@H](O)[C@H](O)[C@H](O)CO)C(=O)NCCCC[C@H](N[*:1])C(=O)[*:2]; KCOpipzaa = N6-(4-(carboxymethyl)piperazine-1-carbonyl)-L-lysine, O=C(NCCCC[C@H](N[*:1])C(=O)[*:2])N1CCN(CC(=O)[*:3])CC1; Phe(3-guanidino) = 3-[(aminoiminomethyl)amino]-L-phenylalanine, N=C(N)Nc1cccc(C[C@H](N[*:1])C(=O)[*:2])c1; Trp(6-aza) = N[C@@H](Cc1c[nH]c2cnccc12)C(=O)O; Trp(7-aza) = N[C@@H](Cc1c[nH]c2ncccc12)C(=O)O; 1Nal = N[C@@H](Cc1cccc2ccccc12)C(=O)O; Gly(NCH2CH2Ph) = O=C(O)CNCCc1ccccc1; 3Pal = N[C@@H](Cc1cccnc1)C(=O)O; 4Pal = N[C@@H](Cc1ccncc1)C(=O)O

Key:
recombinant human TGF-β1 = molecular target: T1, recombinant human TGF-β1 (Homo sapiens, UniProt P01137); experiment: ELISA of HA-tagged peptides with TGF-β1 beads; assay type: binding; settings: for Activity of binding to TGF-β: relative value with binding of peptide TGFb1_061 (SEQ ID NO: 62) to TGF-β1 set to 100%, HA-tagged peptides, TGF-β1 beads ELISA
T1 construct: purchased R&D systems
Source text: In this Example, ELISA was used to evaluate the binding between TGF-β1 and each of various peptides consisting of the amino acid sequences set forth in SEQ ID NOs: 34-69 synthesized in Examples 6 and 7. An HA-tag was attached to the G end of the C-terminal linker of the peptide consisting of the amino acid sequence set forth in SEQ ID NOs: 34-69. As used herein, the “HA-tag” means the amino acid sequence of PEG10[…] (SEQ ID NO: 70).
The binding activity of each peptide to TGF-β1 was examined by ELISA using the peptide consisting of the amino acid sequence set forth in SEQ ID NOs: 34-69 having an HA-tag attached and TGF-β1 beads.
Recombinant human TGF-β1 (R&D Systems) was immobilized on Dynabead M-270 Carboxylic Acid (Thermo fisher scientific) to prepare TGF-β1 beads. The immobilization reaction was performed using the Amine Coupling kit (DOJINDO LABORATORIES).
TGF-β1 beads and each peptide having the HA-tag sequence attached at the C-terminus were reacted in PBS (PBS-T) containing 0.1% Tween 20 (NACALAI TESQUE, INC.) for 1 hour and then washed by PBS-T. To detect the peptide bound to the TGF-β1 beads, an anti-HA-tag mAb-HRP-DirecT (MBL) and the TGF-β1 beads were reacted in PBS-T containing 1% BSA for 30 min. After washing with PBST, a SureBlue TMB Microwell Peroxidase Substrate (Kirkegaard & Perry Laboratories) was added for coloration for 10 min. TMB stop solution (Kirkegaard & Perry Laboratories) was then added to stop the coloration reaction. An EnSpire (Perkin Elmer) was used to measure absorbance.
Note that the binding activity was expressed as a relative value when the ability of binding the peptide TGFb1_061 (SEQ ID NO: 62) to TGF-β1 was set to 100%.

[1] = molecular target: T2, recombinant human TGF-β1 (R&D systems) (human, UniProt P01137 279-390); experiment: cell-based or functional assay
[2] = molecular target: T2, recombinant human TGF-β1 (R&D systems); experiment: SPR, TGF-β1 immobilised, single cycle kinetics
Procedure: Subsequently, 50 μL of 60 mM EDC solution (Global Life Science Technologies Japan Co., Ltd.) and 50 μL of 650 mM NHS solution (Global Life Science Technologies Japan Co., Ltd.) were mixed. Next, the reaction was carried out at a flow rate of 10 μL/min for 420 seconds. Then, 150 μL of 0.2 μM TGF-β solution diluted in 10 mM acetic acid solution (pH 5.0) was prepared and reacted at a flow rate of 10 μL/min for 420 seconds to immobilize TGF-β on the CM3 sensor chip. TGF-β was human-derived TGF-β1 or β2 (recombinant human TGF-β1, 2) and was obtained from R&D systems. After immobilization, capping was performed by reacting with 1.0 M ethanolamine aqueous solution (Global Life Science Technologies Japan Co., Ltd.) at a flow rate of […] for 420 seconds.
A liquid prepared by dissolving each peptide at 10 mM in DMSO solution was diluted with running buffer to prepare a peptide-dissolved solution at a final concentration of 10 μM. Subsequently, 50 nM, 25 nM, 12.5 nM, 5 nM, and 2.5 nM peptide solutions were prepared. Using the above samples, the kinetics of each peptide against TGF-β was obtained by SPR measurement.
The kinetics evaluation model was Single Cycle Kinetics, and curve fitting was performed using Biacore T200 Evaluation Software Version 3.0 (Global Life Science Technologies Japan Co., Ltd.). The binding of various peptides to TGF-β was evaluated by performing least-squares curve fitting on the obtained sensorgram to calculate the KD value.

T2 sequence (P01137 279-390 limits assumed): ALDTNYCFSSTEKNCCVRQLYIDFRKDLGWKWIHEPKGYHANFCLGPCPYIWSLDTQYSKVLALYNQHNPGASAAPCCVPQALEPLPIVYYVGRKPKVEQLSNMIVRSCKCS
T1 sequence (P01137 279-390 limits assumed): as above

Molecule	Activity of binding to TGF-β (recombinant human TGF-β1) [%]	activity of binding to TGF-β, relative value (recombinant human TGF-β1; ELISA, relative to TGFb1_061 (SEQ ID NO: 62) set to 100%, HA-tag attached) [%]	SBE reporter % inhibition, peptide 0.075 nM [1] [%]	SBE reporter % inhibition, peptide 0.75 nM [1] [%]	SBE reporter % inhibition, peptide 7.5 nM [1] [%]	SBE reporter % inhibition, peptide 75.0 nM [1] [%]	Kd [2] [pM]
65 ({CH2CO}-F[1Nal]VVNV[Phe(3-guanidino)]DD[Gly(NCH2CH2Ph)]V[1Nal]YHVCG; thioether N-16; also: HA-tag) [compound 65]	104	–	–	–	–	–	–
66 ({CH2CO}-F[Trp(7-aza)]VVNVYDD[Gly(NCH2CH2Ph)]V[1Nal]YHVCG; thioether N-16; also: HA-tag) [compound 66]	106	–	–	–	–	–	–
67 ({CH2CO}-F[1Nal]VVNVYDE[Gly(NCH2CH2Ph)]V[1Nal]YHVCG; thioether N-16; also: HA-tag) [compound 67]	116	–	–	–	–	–	–
68 ({CH2CO}-F[1Nal]VVNV[4Pal]DD[Gly(NCH2CH2Ph)]V[1Nal]YHVCG; thioether N-16; also: HA-tag) [compound 68]	119	–	–	–	–	–	–
69 ({CH2CO}-F[1Nal]VVNV[3Pal]DD[Gly(NCH2CH2Ph)]V[1Nal]YHVCG; thioether N-16; also: HA-tag) [compound 69]	140	–	–	–	–	–	–
TGFb1_061: cyclic peptide of Table 4 with G linker and HA-tag; ELISA reference set to 100% ({CH2CO}-F[1Nal]VVNVYDD[Gly(NCH2CH2Ph)]V[1Nal]YHVCG-{HA‑tag}; thioether N-16)	–	100	–	–	–	–	–
{CH2CO}-F[Trp(7-aza)]VVNV[4Pal]DD[Gly(NCH2CH2Ph)]V[1Nal]YHVCG (thioether N-16; not fully specified (C-terminus), cyclic peptide; C-terminal G is a linker) [TGFb1_008]	–	–	3.8	56.8	94.6	98.4	4640
{CH2CO}-F[1Nal]VKNV[4Pal]DD[Gly(NCH2CH2Ph)]V[1Nal]YHVCG (thioether N-16; not fully specified (C-terminus), cyclic peptide; C-terminal G is a linker) [TGFb1_007]	–	–	0.1	37.5	83.5	96.7	2700
{CH2CO}-F[1Nal]V[KCOmeglumine]NV[4Pal]DD[Gly(NCH2CH2Ph)]V[1Nal]YHVCG-NH2 (thioether N-16; SMILES CC(C)[C@@H]1NC(=O)CN(CCc2ccccc2)C(=O)[C@H](CC(=O)O)NC(=O)[C@H](CC(=O)O)NC(=O)[C@H](Cc2ccncc2)NC(=O)[C@H](C(C)C)NC(=O)[C@H](CC(N)=O)NC(=O)[C@H](CCCCNC(=O)N(C)C[C@H](O)[C@@H](O)[C@H](O)[C@H](O)CO)NC(=O)[C@H](C(C)C)NC(=O)[C@H](Cc2cccc3ccccc23)NC(=O)[C@H](Cc2ccccc2)NC(=O)CSC[C@@H](C(=O)NCC(N)=O)NC(=O)[C@H](C(C)C)NC(=O)[C@H](Cc2c[nH]cn2)NC(=O)[C@H](Cc2ccc(O)cc2)NC(=O)[C@H](Cc2cccc3ccccc23)NC1=O, cyclic peptide; C-terminal G is a linker) [TGFb1_014]	–	–	0	64.8	97.2	98.8	660
{CH2CO}-F[1Nal]VVNVYDD[Gly(NCH2CH2Ph)]V[1Nal]YHVCG (thioether N-16, cyclic peptide; C-terminal G is a linker) [TGFb1_001]	–	–	19.7	69.7	98.1	101	550
{CH2CO}-F[1Nal]VVNVYDD[Gly(NCH2CH2Ph)]V[1Nal]YHVC (thioether N-16, cyclic peptide) [TGFb1_002]	–	–	–	–	–	–	460
{CH2CO}-F[1Nal]V[KCOpipzaa]NV[4Pal]DD[Gly(NCH2CH2Ph)]V[1Nal]YHVCG (thioether N-16; not fully specified (C-terminus), cyclic peptide; C-terminal G is a linker) [TGFb1_010]	–	–	2	63.8	97.9	99.9	900
{CH2CO}-F[Trp(6-aza)]VVNVYDD[Gly(NCH2CH2Ph)]V[1Nal]YHVCG (thioether N-16, cyclic peptide; C-terminal G is a linker) [TGFb1_004]	–	–	0	0.9	70.1	94.9	1490
{CH2CO}-F[1Nal]VVNV[4Pal]D[KCOpipzaa][Gly(NCH2CH2Ph)]V[1Nal]YHVCG-NH2 (thioether N-16; SMILES CC(C)[C@@H]1NC(=O)CN(CCc2ccccc2)C(=O)[C@H](CCCCNC(=O)N2CCN(CC(=O)O)CC2)NC(=O)[C@H](CC(=O)O)NC(=O)[C@H](Cc2ccncc2)NC(=O)[C@H](C(C)C)NC(=O)[C@H](CC(N)=O)NC(=O)[C@H](C(C)C)NC(=O)[C@H](C(C)C)NC(=O)[C@H](Cc2cccc3ccccc23)NC(=O)[C@H](Cc2ccccc2)NC(=O)CSC[C@@H](C(=O)NCC(N)=O)NC(=O)[C@H](C(C)C)NC(=O)[C@H](Cc2c[nH]cn2)NC(=O)[C@H](Cc2ccc(O)cc2)NC(=O)[C@H](Cc2cccc3ccccc23)NC1=O, cyclic peptide; C-terminal G is a linker) [TGFb1_011]	–	–	6.1	76.3	97.9	100	620
{CH2CO}-F[1Nal]VVNV[4Pal]D[KCOmeglumine][Gly(NCH2CH2Ph)]V[1Nal]YHVCG-NH2 (thioether N-16; SMILES CC(C)[C@@H]1NC(=O)CN(CCc2ccccc2)C(=O)[C@H](CCCCNC(=O)N(C)C[C@H](O)[C@@H](O)[C@H](O)[C@H](O)CO)NC(=O)[C@H](CC(=O)O)NC(=O)[C@H](Cc2ccncc2)NC(=O)[C@H](C(C)C)NC(=O)[C@H](CC(N)=O)NC(=O)[C@H](C(C)C)NC(=O)[C@H](C(C)C)NC(=O)[C@H](Cc2cccc3ccccc23)NC(=O)[C@H](Cc2ccccc2)NC(=O)CSC[C@@H](C(=O)NCC(N)=O)NC(=O)[C@H](C(C)C)NC(=O)[C@H](Cc2c[nH]cn2)NC(=O)[C@H](Cc2ccc(O)cc2)NC(=O)[C@H](Cc2cccc3ccccc23)NC1=O, cyclic peptide; C-terminal G is a linker) [TGFb1_015]	–	–	0	76.9	98.7	98.4	590
{CH2CO}-F[1Nal]VVNV[4Pal]DD[Gly(NCH2CH2Ph)]V[1Nal][4Pal]HVCG (thioether N-16; not fully specified (C-terminus), cyclic peptide; C-terminal G is a linker) [TGFb1_009]	–	–	2.7	53	94.8	99.6	580
{CH2CO}-F[Trp(7-aza)]VVNVYDD[Gly(NCH2CH2Ph)]V[1Nal]YHVCG (thioether N-16; not fully specified (C-terminus), cyclic peptide; C-terminal G is a linker) [TGFb1_005]	–	–	0.4	47	90.8	98.9	1150
